Here are results for 33 molecules from PMC12416549 (2024).

B1: K8V (designed binder)
chain: SMEEEVEVAAKEYEKKKKEAIEKHLEKLKAKDKEAAERFLKELEEAAKEYAKDEAKTMSEEEAKRRAKKYKEKVLLSELSEEEQKEIKEAEEKLVRTILKYVEEAAK
B2: K56Y (designed binder)
chain: SMEEEVEKAAKEYEKKKKEAIEKHLEKLKAKDKEAAERFLKELEEAAKEYAKDEAYTMSEEEAKRRAKKYKEKVLLSELSEEEQKEIKEAEEKLVRTILKYVEEAAK
B3: E82R (designed binder)
chain: SMEEEVEKAAKEYEKKKKEAIEKHLEKLKAKDKEAAERFLKELEEAAKEYAKDEAKTMSEEEAKRRAKKYKEKVLLSELSEREQKEIKEAEEKLVRTILKYVEEAAK
B4: H24F (designed binder)
chain: SMEEEVEKAAKEYEKKKKEAIEKFLEKLKAKDKEAAERFLKELEEAAKEYAKDEAKTMSEEEAKRRAKKYKEKVLLSELSEEEQKEIKEAEEKLVRTILKYVEEAAK
B5: I98C (designed binder)
chain: SMEEEVEKAAKEYEKKKKEAIEKHLEKLKAKDKEAAERFLKELEEAAKEYAKDEAKTMSEEEAKRRAKKYKEKVLLSELSEEEQKEIKEAEEKLVRTCLKYVEEAAK
B6: E91P (designed binder)
chain: SMEEEVEKAAKEYEKKKKEAIEKHLEKLKAKDKEAAERFLKELEEAAKEYAKDEAKTMSEEEAKRRAKKYKEKVLLSELSEEEQKEIKEAPEKLVRTILKYVEEAAK
B7: E7D (designed binder)
chain: SMEEEVDKAAKEYEKKKKEAIEKHLEKLKAKDKEAAERFLKELEEAAKEYAKDEAKTMSEEEAKRRAKKYKEKVLLSELSEEEQKEIKEAEEKLVRTILKYVEEAAK
B8: Y50F (designed binder)
chain: SMEEEVEKAAKEYEKKKKEAIEKHLEKLKAKDKEAAERFLKELEEAAKEFAKDEAKTMSEEEAKRRAKKYKEKVLLSELSEEEQKEIKEAEEKLVRTILKYVEEAAK
B9: A51C (designed binder)
chain: SMEEEVEKAAKEYEKKKKEAIEKHLEKLKAKDKEAAERFLKELEEAAKEYCKDEAKTMSEEEAKRRAKKYKEKVLLSELSEEEQKEIKEAEEKLVRTILKYVEEAAK
B10: E22K (designed binder)
chain: SMEEEVEKAAKEYEKKKKEAIKKHLEKLKAKDKEAAERFLKELEEAAKEYAKDEAKTMSEEEAKRRAKKYKEKVLLSELSEEEQKEIKEAEEKLVRTILKYVEEAAK
B11: T97S (designed binder)
chain: SMEEEVEKAAKEYEKKKKEAIEKHLEKLKAKDKEAAERFLKELEEAAKEYAKDEAKTMSEEEAKRRAKKYKEKVLLSELSEEEQKEIKEAEEKLVRSILKYVEEAAK
B12: E19T (designed binder)
chain: SMEEEVEKAAKEYEKKKKTAIEKHLEKLKAKDKEAAERFLKELEEAAKEYAKDEAKTMSEEEAKRRAKKYKEKVLLSELSEEEQKEIKEAEEKLVRTILKYVEEAAK
B13: V74K (designed binder)
chain: SMEEEVEKAAKEYEKKKKEAIEKHLEKLKAKDKEAAERFLKELEEAAKEYAKDEAKTMSEEEAKRRAKKYKEKKLLSELSEEEQKEIKEAEEKLVRTILKYVEEAAK
B14: K93R (designed binder)
chain: SMEEEVEKAAKEYEKKKKEAIEKHLEKLKAKDKEAAERFLKELEEAAKEYAKDEAKTMSEEEAKRRAKKYKEKVLLSELSEEEQKEIKEAEERLVRTILKYVEEAAK
B15: K15T (designed binder)
chain: SMEEEVEKAAKEYETKKKEAIEKHLEKLKAKDKEAAERFLKELEEAAKEYAKDEAKTMSEEEAKRRAKKYKEKVLLSELSEEEQKEIKEAEEKLVRTILKYVEEAAK
B16: K15L (designed binder)
chain: SMEEEVEKAAKEYELKKKEAIEKHLEKLKAKDKEAAERFLKELEEAAKEYAKDEAKTMSEEEAKRRAKKYKEKVLLSELSEEEQKEIKEAEEKLVRTILKYVEEAAK
B17: A30F (designed binder)
chain: SMEEEVEKAAKEYEKKKKEAIEKHLEKLKFKDKEAAERFLKELEEAAKEYAKDEAKTMSEEEAKRRAKKYKEKVLLSELSEEEQKEIKEAEEKLVRTILKYVEEAAK
B18: A90Y (designed binder)
chain: SMEEEVEKAAKEYEKKKKEAIEKHLEKLKAKDKEAAERFLKELEEAAKEYAKDEAKTMSEEEAKRRAKKYKEKVLLSELSEEEQKEIKEYEEKLVRTILKYVEEAAK
B19: F39H (designed binder)
chain: SMEEEVEKAAKEYEKKKKEAIEKHLEKLKAKDKEAAERHLKELEEAAKEYAKDEAKTMSEEEAKRRAKKYKEKVLLSELSEEEQKEIKEAEEKLVRTILKYVEEAAK
B20: A51R (designed binder)
chain: SMEEEVEKAAKEYEKKKKEAIEKHLEKLKAKDKEAAERFLKELEEAAKEYRKDEAKTMSEEEAKRRAKKYKEKVLLSELSEEEQKEIKEAEEKLVRTILKYVEEAAK
B21: E45R (designed binder)
chain: SMEEEVEKAAKEYEKKKKEAIEKHLEKLKAKDKEAAERFLKELERAAKEYAKDEAKTMSEEEAKRRAKKYKEKVLLSELSEEEQKEIKEAEEKLVRTILKYVEEAAK
B22: A51E (designed binder)
chain: SMEEEVEKAAKEYEKKKKEAIEKHLEKLKAKDKEAAERFLKELEEAAKEYEKDEAKTMSEEEAKRRAKKYKEKVLLSELSEEEQKEIKEAEEKLVRTILKYVEEAAK
B23: E45C (designed binder)
chain: SMEEEVEKAAKEYEKKKKEAIEKHLEKLKAKDKEAAERFLKELECAAKEYAKDEAKTMSEEEAKRRAKKYKEKVLLSELSEEEQKEIKEAEEKLVRTILKYVEEAAK
B24: E104S (designed binder)
chain: SMEEEVEKAAKEYEKKKKEAIEKHLEKLKAKDKEAAERFLKELEEAAKEYAKDEAKTMSEEEAKRRAKKYKEKVLLSELSEEEQKEIKEAEEKLVRTILKYVESAAK
B25: S77Q (designed binder)
chain: SMEEEVEKAAKEYEKKKKEAIEKHLEKLKAKDKEAAERFLKELEEAAKEYAKDEAKTMSEEEAKRRAKKYKEKVLLQELSEEEQKEIKEAEEKLVRTILKYVEEAAK
B26: R96C (designed binder)
chain: SMEEEVEKAAKEYEKKKKEAIEKHLEKLKAKDKEAAERFLKELEEAAKEYAKDEAKTMSEEEAKRRAKKYKEKVLLSELSEEEQKEIKEAEEKLVCTILKYVEEAAK
B27: R96D (designed binder)
chain: SMEEEVEKAAKEYEKKKKEAIEKHLEKLKAKDKEAAERFLKELEEAAKEYAKDEAKTMSEEEAKRRAKKYKEKVLLSELSEEEQKEIKEAEEKLVDTILKYVEEAAK
B28: V102E (designed binder)
chain: SMEEEVEKAAKEYEKKKKEAIEKHLEKLKAKDKEAAERFLKELEEAAKEYAKDEAKTMSEEEAKRRAKKYKEKVLLSELSEEEQKEIKEAEEKLVRTILKYEEEAAK
B29: E82P (designed binder)
chain: SMEEEVEKAAKEYEKKKKEAIEKHLEKLKAKDKEAAERFLKELEEAAKEYAKDEAKTMSEEEAKRRAKKYKEKVLLSELSEPEQKEIKEAEEKLVRTILKYVEEAAK
B30: K31P (designed binder)
chain: SMEEEVEKAAKEYEKKKKEAIEKHLEKLKAPDKEAAERFLKELEEAAKEYAKDEAKTMSEEEAKRRAKKYKEKVLLSELSEEEQKEIKEAEEKLVRTILKYVEEAAK
B31: V6K (designed binder)
chain: SMEEEKEKAAKEYEKKKKEAIEKHLEKLKAKDKEAAERFLKELEEAAKEYAKDEAKTMSEEEAKRRAKKYKEKVLLSELSEEEQKEIKEAEEKLVRTILKYVEEAAK
B32: K16V (designed binder)
chain: SMEEEVEKAAKEYEKVKKEAIEKHLEKLKAKDKEAAERFLKELEEAAKEYAKDEAKTMSEEEAKRRAKKYKEKVLLSELSEEEQKEIKEAEEKLVRTILKYVEEAAK
B33: E7L (designed binder)
chain: SMEEEVLKAAKEYEKKKKEAIEKHLEKLKAKDKEAAERFLKELEEAAKEYAKDEAKTMSEEEAKRRAKKYKEKVLLSELSEEEQKEIKEAEEKLVRTILKYVEEAAK

The experiment concerns the target T1, TNFR1 (Homo sapiens, UniProt P19438).
T1 chain: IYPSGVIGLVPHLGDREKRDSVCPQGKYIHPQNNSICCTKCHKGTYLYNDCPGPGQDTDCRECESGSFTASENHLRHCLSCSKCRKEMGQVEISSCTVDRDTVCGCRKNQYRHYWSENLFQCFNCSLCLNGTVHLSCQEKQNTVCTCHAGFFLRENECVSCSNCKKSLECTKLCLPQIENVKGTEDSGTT
Description: yeast display SC50.
In the case of B1, the “apparent Kd (screen)” value stood at 1.16 nM.

Consider B2, for which the “apparent Kd (screen)” value worked out at 3.99 nM.

For B3, the “apparent Kd (screen)” value turned out to be 0.405 nM.

As to B4, the “apparent Kd (screen)” value amounted to 0.956 nM.

Turning to B5, the “apparent Kd (screen)” value was determined as 6.43 nM.

For B6, the “apparent Kd (screen)” value worked out at 1.54 nM.

Consider B7, for which the “apparent Kd (screen)” value amounted to 0.956 nM.

In the case of B8, the “apparent Kd (screen)” value stood at 13.8 nM.

For the molecule B9, the “apparent Kd (screen)” value stood at 0.446 nM.

For the molecule B10, the “apparent Kd (screen)” value came out at 1.05 nM.

Regarding B11, the “apparent Kd (screen)” value came to 2.25 nM.

For B12, the “apparent Kd (screen)” value is 0.49 nM.

As for B13, the “apparent Kd (screen)” value is 6.43 nM.

As to B14, the “apparent Kd (screen)” value amounted to 0.593 nM.

Consider B15, for which the “apparent Kd (screen)” value stood at 0.653 nM.

On to B16, for which the “apparent Kd (screen)” value turned out to be 0.49 nM.

As for B17, the “apparent Kd (screen)” value was determined as 0.869 nM.

B18: the “apparent Kd (screen)” value is 0.49 nM.

For B19, the “apparent Kd (screen)” value worked out at 4.39 nM.

With B20, the “apparent Kd (screen)” value was found to be 0.49 nM.

For B21, the “apparent Kd (screen)” value amounted to 6.43 nM.

Regarding B22, the “apparent Kd (screen)” value stood at 0.49 nM.

As to B23, the “apparent Kd (screen)” value was 1.27 nM.

With B24, the “apparent Kd (screen)” value amounted to 0.718 nM.

For B25, the “apparent Kd (screen)” value amounted to 1.27 nM.

For the molecule B26, the “apparent Kd (screen)” value is 2.48 nM.

Regarding B27, the “apparent Kd (screen)” value amounted to 10.4 nM.

Turning to B28, the “apparent Kd (screen)” value worked out at 1.4 nM.

For B29, the “apparent Kd (screen)” value turned out to be 1.16 nM.

Take B30: the “apparent Kd (screen)” value is 3 nM.

Regarding B31, the “apparent Kd (screen)” value is 1.54 nM.

Turning to B32, the “apparent Kd (screen)” value came out at 1.05 nM.

Regarding B33, the “apparent Kd (screen)” value is 11.4 nM.
